Data published in article PMC9394431 (Cell, 2022).

Target: T1, α1β2γ2 GABAA receptor (Homo sapiens)
T1 chain 1: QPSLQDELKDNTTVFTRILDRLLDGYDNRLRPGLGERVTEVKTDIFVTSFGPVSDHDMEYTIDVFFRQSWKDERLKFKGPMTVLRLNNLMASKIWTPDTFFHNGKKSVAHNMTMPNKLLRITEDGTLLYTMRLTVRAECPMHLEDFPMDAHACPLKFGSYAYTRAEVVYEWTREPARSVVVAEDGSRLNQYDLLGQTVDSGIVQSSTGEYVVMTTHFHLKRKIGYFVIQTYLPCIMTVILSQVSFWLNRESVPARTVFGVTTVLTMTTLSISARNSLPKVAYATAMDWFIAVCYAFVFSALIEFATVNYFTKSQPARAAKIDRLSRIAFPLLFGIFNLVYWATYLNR
T1 chain 2: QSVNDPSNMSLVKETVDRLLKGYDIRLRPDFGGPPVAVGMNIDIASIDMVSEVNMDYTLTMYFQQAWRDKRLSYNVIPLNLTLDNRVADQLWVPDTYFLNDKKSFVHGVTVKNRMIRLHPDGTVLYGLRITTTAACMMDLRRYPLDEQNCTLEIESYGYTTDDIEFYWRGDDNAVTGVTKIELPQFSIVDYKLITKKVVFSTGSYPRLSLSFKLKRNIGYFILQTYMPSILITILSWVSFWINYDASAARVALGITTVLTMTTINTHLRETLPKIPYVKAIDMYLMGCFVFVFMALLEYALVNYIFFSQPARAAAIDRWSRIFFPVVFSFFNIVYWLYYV
T1 chain 3: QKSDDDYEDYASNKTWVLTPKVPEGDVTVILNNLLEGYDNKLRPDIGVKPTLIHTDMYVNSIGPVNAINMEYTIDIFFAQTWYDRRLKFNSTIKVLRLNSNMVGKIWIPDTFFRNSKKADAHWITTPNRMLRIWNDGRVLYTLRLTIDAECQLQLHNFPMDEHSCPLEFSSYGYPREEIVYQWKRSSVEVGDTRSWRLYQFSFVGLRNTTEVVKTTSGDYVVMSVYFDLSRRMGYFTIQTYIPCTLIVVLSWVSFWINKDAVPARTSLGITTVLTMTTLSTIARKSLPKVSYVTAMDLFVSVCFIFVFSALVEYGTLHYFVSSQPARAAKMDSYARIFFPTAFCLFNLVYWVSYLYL
Assay: SEC

B1: Fab175 (Fab, V domains shown)
VH: EVQLLESGEGLVQPGGSLRLSCAASGFTFKTYAMSWVRQAPGKGLEWVSAISGSGASTYYADFVEGRFTISRDNSKNTLYLQMNSLRAEDTAVYYCAKEPPAMVWFGGGYFDYWGQGTLVTVSS
VL: EIVLTQSPATLSLSPGERATLSCRASQSVSSYLAWYQQKPGQAPRLLIYDASNRATGIPARFSGSGSGTDFTLTISSLEPEDFAVYYCQQRSNWPPYSFGQGTKLEIK
  stoichiometry N: 1 Fab per receptor
